Test results: the supplement of paper PMC9112550, “Optimization of the antimicrobial peptide Bac7 by deep mutational scanning” (BMC Biology, 2022)

Tested on: Escherichia coli TOP10
Assay: shrunken log2 fold change of peptide-encoding DNA abundance (4.5 h post-induction vs induction); higher = less antimicrobial activity (less host growth inhibition)
Details: time post-induction: 4.5 h; library: site-saturation at positions 5, 18, 19, 20
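Further: peptides expressed intracellularly from a pBAD plasmid library in pooled LB shake-flask culture, induced with 0.3% L-arabinose, DNA abundance read by NGS, three biological replicates, DESeq2 with apeglm shrinkage.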

Sequence | shrunken log2 fold change
RRIRKRPPRLPRPRPRPTRIPRP | 0.312
RRIRKRPPRLPRPRPRPTSEPRP | 0.79
RRIRKRPPRLPRPRPRPTSGPRP | -0.064
RRIRKRPPRLPRPRPRPTTVPRP | 0.331
RRIRKRPPRLPRPRPRPTVAPRP | 0.814
RRIRKRPPRLPRPRPRPTVCPRP | 0.765
RRIRKRPPRLPRPRPRPTVKPRP | 0.19
RRIRKRPPRLPRPRPRPTVWPRP | 0.548
RRIRKRPPRLPRPRPRPTWDPRP | 0.289
RRIRKRPPRLPRPRPRPTWMPRP | 0.466
RRIRKRPPRLPRPRPRPTYAPRP | 0.431
RRIRKRPPRLPRPRPRPVAHPRP | 0.353
RRIRKRPPRLPRPRPRPVAMPRP | 1.67
RRIRKRPPRLPRPRPRPVAWPRP | 0.315
RRIRKRPPRLPRPRPRPVCPPRP | 0.0175
RRIRKRPPRLPRPRPRPVCRPRP | 0.245
RRIRKRPPRLPRPRPRPVDFPRP | 0.103
RRIRKRPPRLPRPRPRPVDNPRP | -0.0705
RRIRKRPPRLPRPRPRPVEHPRP | 0.455
RRIRKRPPRLPRPRPRPVEKPRP | -0.0124
RRIRKRPPRLPRPRPRPVENPRP | 0.198
RRIRKRPPRLPRPRPRPVEVPRP | 0.0844
RRIRKRPPRLPRPRPRPVFAPRP | 2.02
RRIRKRPPRLPRPRPRPVFCPRP | -0.126
RRIRKRPPRLPRPRPRPVFMPRP | 0.138

Sequence | shrunken log2 fold change
RRIRKRPPRLPRPRPRPVGKPRP | -0.163
RRIRKRPPRLPRPRPRPVGLPRP | 0.174
RRIRKRPPRLPRPRPRPVHDPRP | 0.0707
RRIRKRPPRLPRPRPRPVHQPRP | 0.305
RRIRKRPPRLPRPRPRPVIPPRP | -0.26
RRIRKRPPRLPRPRPRPVLEPRP | 0.475
RRIRKRPPRLPRPRPRPVLLPRP | 0.122
RRIRKRPPRLPRPRPRPVMDPRP | -0.0489
RRIRKRPPRLPRPRPRPVMIPRP | 0.0956
RRIRKRPPRLPRPRPRPVSRPRP | 0.652
RRIRKRPPRLPRPRPRPVTGPRP | -0.0771
RRIRKRPPRLPRPRPRPVVNPRP | 0.000998
RRIRKRPPRLPRPRPRPVYKPRP | 0.0665
RRIRKRPPRLPRPRPRPVYWPRP | -0.0795
RRIRKRPPRLPRPRPRPWADPRP | -0.017
RRIRKRPPRLPRPRPRPWCLPRP | -0.503
RRIRKRPPRLPRPRPRPWGEPRP | 0.539
RRIRKRPPRLPRPRPRPWGHPRP | -0.0374
RRIRKRPPRLPRPRPRPWGLPRP | -0.22
RRIRKRPPRLPRPRPRPWGRPRP | 0.179
RRIRKRPPRLPRPRPRPWICPRP | 0.044
RRIRKRPPRLPRPRPRPWIGPRP | 0.0664
RRIRKRPPRLPRPRPRPWKVPRP | -0.000777
RRIRKRPPRLPRPRPRPWLEPRP | -0.00226
RRIRKRPPRLPRPRPRPWLTPRP | 0.0883

Sequence | shrunken log2 fold change
RRIRKRPPRLPRPRPRPWMKPRP | -0.0454
RRIRKRPPRLPRPRPRPWNQPRP | -0.0169
RRIRKRPPRLPRPRPRPWQFPRP | 0.157
RRIRKRPPRLPRPRPRPWQPPRP | 0.0588
RRIRKRPPRLPRPRPRPWRFPRP | 0.234
RRIRKRPPRLPRPRPRPWSAPRP | 0.0935
RRIRKRPPRLPRPRPRPWSVPRP | -0.0212
RRIRKRPPRLPRPRPRPWSYPRP | -0.528
RRIRKRPPRLPRPRPRPWTIPRP | 0.0185
RRIRKRPPRLPRPRPRPWVAPRP | 0.282
RRIRKRPPRLPRPRPRPWVTPRP | 0.000269
RRIRKRPPRLPRPRPRPWYFPRP | 0.0699
RRIRKRPPRLPRPRPRPWYKPRP | -0.0194
RRIRKRPPRLPRPRPRPYETPRP | 0.00149
RRIRKRPPRLPRPRPRPYFFPRP | 0.168
RRIRKRPPRLPRPRPRPYGRPRP | -0.0362
RRIRKRPPRLPRPRPRPYGYPRP | -0.0282
RRIRKRPPRLPRPRPRPYIIPRP | -0.0823
RRIRKRPPRLPRPRPRPYIKPRP | -0.28
RRIRKRPPRLPRPRPRPYIMPRP | -0.153
RRIRKRPPRLPRPRPRPYIWPRP | -0.126
RRIRKRPPRLPRPRPRPYKFPRP | -0.0374
RRIRKRPPRLPRPRPRPYLEPRP | 0.0252
RRIRKRPPRLPRPRPRPYLQPRP | -0.599
RRIRKRPPRLPRPRPRPYMLPRP | -0.579
